Here are results for three molecules from paper PMC10611921, “Assessing the dynamics and macromolecular interactions of the intrinsically disordered protein YY1” (Bioscience Reports, 2023).

The target of data set [1] is T1, FOXP2 FHD (UniProt O15409 504-594).
T1 sequence: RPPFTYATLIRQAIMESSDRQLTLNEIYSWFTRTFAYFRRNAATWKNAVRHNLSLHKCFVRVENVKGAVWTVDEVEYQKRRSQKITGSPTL
Nature of the data set: EMSA; control gel; no specific binding; Anisotropy: 10 mM HEPES pH 7.5, 100 mM NaCl, 20 C; EMSA: 0.5 uM DNA, 20% (v/v) of binding buffer (10 mM HEPES pH 7.5, 1 mM MgCl2, 100 mM KCl, 10% glycerol, 0.1). The settings on record: protein: recombinant; tags: His6 removed with thrombin. For orientation: In EMSA bound probe runs differently from free probe, usually more slowly.

Data set [2] deals with YY1 labelled with NTA ATTO 550 (UniProt P25490 1-414). Nature of the data set: fluorescence anisotropy; apparent KD; 0.2 uM labelled YY1, DNA titrated; 100 mM NaCl; Anisotropy: 10 mM HEPES pH 7.5, 100 mM NaCl, 20 C; EMSA: 0.5 uM DNA, 20% (v/v) of binding buffer (10 mM HEPES pH 7.5, 1 mM MgCl2, 100 mM KCl, 10% glycerol, 0.1). Particulars: protein: recombinant; tags: N-terminal His6 (NTA ATTO 550 label). On the technique in general: Fluorescence polarisation rises when a labelled molecule tumbles more slowly, as on binding a larger partner.
YY1 labelled with NTA ATTO 550, sequence (P25490 whole entry): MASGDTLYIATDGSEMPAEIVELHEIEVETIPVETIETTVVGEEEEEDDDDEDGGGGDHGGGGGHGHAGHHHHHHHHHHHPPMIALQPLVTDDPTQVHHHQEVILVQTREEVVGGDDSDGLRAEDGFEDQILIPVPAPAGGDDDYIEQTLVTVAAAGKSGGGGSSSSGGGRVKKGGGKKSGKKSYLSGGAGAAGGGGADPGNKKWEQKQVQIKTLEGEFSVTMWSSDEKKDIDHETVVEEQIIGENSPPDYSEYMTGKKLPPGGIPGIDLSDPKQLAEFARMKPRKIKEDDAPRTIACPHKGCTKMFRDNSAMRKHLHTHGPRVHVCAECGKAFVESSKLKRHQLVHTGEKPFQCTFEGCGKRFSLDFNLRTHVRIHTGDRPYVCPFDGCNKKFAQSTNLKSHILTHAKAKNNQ

Data set [3] deals with T1, FOXP2 FHD. Briefly: EMSA; single complex, no YY1; Anisotropy: 10 mM HEPES pH 7.5, 100 mM NaCl, 20 C; EMSA: 0.5 uM DNA, 20% (v/v) of binding buffer (10 mM HEPES pH 7.5, 1 mM MgCl2, 100 mM KCl, 10% glycerol, 0.1). Particulars: protein: recombinant; tags: His6 removed with thrombin.
Data set [4] concerns the target T2, Yin Yang 1 (YY1), full-length, N-terminal hexahistidine tag (UniProt P25490 1-414, NTA ATTO 550 on the N-terminal hexahistidine tag (the labelled copy in the anisotropy assays)).
T2 construct: YY1 (Yin Yang 1), full-length construct; A heterogeneous mixture of oligomers in solution; In the anisotropy assays 0.2 μM YY1 carried NTA ATTO 550 on the His tag; the titrated YY1 was unlabelled; also called Ying Yang 1; source: T7 cells (Genscript), pET-11A plasmid, purified (IMAC on cobalt, size exclusion chromatography); not shown: His6, N-terminal, kept
Briefly: fluorescence polarisation; fluorescence anisotropy; unlabelled FOXP2 FHD titrated into 0.2 μM YY1 labelled with NTA ATTO 550 in the presence of 10 μM background AAV P5 promoter DNA (YY1 specific); 100 mM NaCl, 10 mM HEPES pH 7.5, 20°C. The settings on record: both partners purified.

In data set [5] the target is T2, Yin Yang 1 (YY1), full-length, …. Nature of the data set: fluorescence polarisation; fluorescence anisotropy; unlabelled FOXP2 FHD titrated into 0.2 μM YY1 labelled with NTA ATTO 550; 100 mM NaCl, 10 mM HEPES pH 7.5, 20°C; single site model, apparent KD. Particulars: both partners purified.
For data set [6] the target is unchanged. Nature of the data set: fluorescence polarisation; fluorescence anisotropy; unlabelled FOXP2 FHD titrated into 0.2 μM YY1 labelled with NTA ATTO 550; 500 mM NaCl, 10 mM HEPES pH 7.5, 20°C; single site model, apparent KD. Particulars: both partners purified.
Data set [7] shares this target. Briefly: fluorescence polarisation; fluorescence anisotropy; unlabelled FOXP2 FHD titrated into 0.2 μM YY1 labelled with NTA ATTO 550; 300 mM NaCl, 10 mM HEPES pH 7.5, 20°C; single site model, apparent KD. The settings on record: both partners purified.

T2 sequence (P25490 whole entry): as above

B1: AAV P5 DNA (dsDNA)
DNA 1: AGGGTCTCCATTTTGAAGCG
DNA 2: CGCTTCAAAATGGAGACCCT
On to B1, for which the binding result with FOXP2 FHD [1] is recorded as “no binding”. Also, the Kd in data set [2] came to 3.7 ± 0.4 µM.

B2: CNTNAP2 DNA (dsDNA)
DNA 1: TTTGATTGTTTACTTTGTTC
DNA 2: GAACAAAGTAAACAATCAAA
With B2, the binding result in the data set with FOXP2 FHD [3] was “binds”.

B3: FOXP2 forkhead domain (FHD) (domain or fragment, UniProt O15409 504-594, looked up)
chain: RPPFTYATLIRQAIMESSDRQLTLNEIYSWFTRTFAYFRRNAATWKNAVRHNLSLHKCFVRVENVKGAVWTVDEVEYQKRRSQKITGSPTL
notes: also called FOXP2 FHD; forkhead box P2 forkhead domain; source: T7 cells (Genscript), pET-11A plasmid, purified (IMAC on nickel; His-tag removed with thrombin, benzamidine and HiTrap columns); not shown: His6, N-terminal, cleaved
For the molecule B3, the Kd in data set [4] is 58 ± 6 µM; in data set [5], ~73 µM; in data set [6] it was ~67 µM; in data set [7], ~28 µM.
